Reference: the supplement of paper PMC10567573

B1: GFOD1 (parent)
chain: SDDFCTFQMVLEGGVCCTVTLNFN

Variants of: B1
Assay: protein stability index of a GFP-peptide fusion (GPS, HEK-293T) (PSI 1-6); higher = more stable
Settings: c terminus: a fixed tail appended
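Also: lentivirally expressed fusions sorted by FACS into six bins by GFP to DsRed ratio, PSI derived from sequencing read proportions per bin multiplied by bin number.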

Variant | protein stability index
SDDSCTFQMVLEGGVCCTVTLNFN [F4S] | 2.38
SDDVCTFQMVLEGGVCCTVTLNFN [F4V] | 2.91
SDDHCTFQMVLEGGVCCTVTLNFN [F4H] | 1.87
SDDRCTFQMVLEGGVCCTVTLNFN [F4R] | 3.19
SDDDCTFQMVLEGGVCCTVTLNFN [F4D] | 2.46
SDDMCTFQMVLEGGVCCTVTLNFN [F4M] | 3.37
SDDCCTFQMVLEGGVCCTVTLNFN [F4C] | 3.57
SDDKCTFQMVLEGGVCCTVTLNFN [F4K] | 1.77
SDDQCTFQMVLEGGVCCTVTLNFN [F4Q] | 2.56
SDDLCTFQMVLEGGVCCTVTLNFN [F4L] | 3.55
SDDICTFQMVLEGGVCCTVTLNFN [F4I] | 3.55
SDDECTFQMVLEGGVCCTVTLNFN [F4E] | 1.81
SDDNCTFQMVLEGGVCCTVTLNFN [F4N] | 3.13
SDDYCTFQMVLEGGVCCTVTLNFN [F4Y] | 2.63
SDDTCTFQMVLEGGVCCTVTLNFN [F4T] | 3.91
QDDFCTFQMVLEGGVCCTVTLNFN [S1Q] | 1.76
YDDFCTFQMVLEGGVCCTVTLNFN [S1Y] | 3.3
EDDFCTFQMVLEGGVCCTVTLNFN [S1E] | 1.75
HDDFCTFQMVLEGGVCCTVTLNFN [S1H] | 2.21
RDDFCTFQMVLEGGVCCTVTLNFN [S1R] | 2.98
MDDFCTFQMVLEGGVCCTVTLNFN [S1M] | 2.15
DDDFCTFQMVLEGGVCCTVTLNFN [S1D] | 2.52
NDDFCTFQMVLEGGVCCTVTLNFN [S1N] | 2.42
KDDFCTFQMVLEGGVCCTVTLNFN [S1K] | 3.01

Variant | protein stability index
PDDFCTFQMVLEGGVCCTVTLNFN [S1P] | 2.84
TDDFCTFQMVLEGGVCCTVTLNFN [S1T] | 3.26
ADDFCTFQMVLEGGVCCTVTLNFN [S1A] | 3.07
SDLFCTFQMVLEGGVCCTVTLNFN [D3L] | 2.58
SDPFCTFQMVLEGGVCCTVTLNFN [D3P] | 3.01
SDAFCTFQMVLEGGVCCTVTLNFN [D3A] | 2.55
SDQFCTFQMVLEGGVCCTVTLNFN [D3Q] | 2.69
SDGFCTFQMVLEGGVCCTVTLNFN [D3G] | 3.28
SDNFCTFQMVLEGGVCCTVTLNFN [D3N] | 2.68
SDKFCTFQMVLEGGVCCTVTLNFN [D3K] | 3.76
SDVFCTFQMVLEGGVCCTVTLNFN [D3V] | 3.3
SDIFCTFQMVLEGGVCCTVTLNFN [D3I] | 1.7
SDYFCTFQMVLEGGVCCTVTLNFN [D3Y] | 4
SDDFCDFQMVLEGGVCCTVTLNFN [T6D] | 3.22
SDDFCWFQMVLEGGVCCTVTLNFN [T6W] | 2.35
SDDFCYFQMVLEGGVCCTVTLNFN [T6Y] | 1.92
SDDFCIFQMVLEGGVCCTVTLNFN [T6I] | 2.48
SDDFCFFQMVLEGGVCCTVTLNFN [T6F] | 2.48
SDDFCEFQMVLEGGVCCTVTLNFN [T6E] | 2.56
SDDFCPFQMVLEGGVCCTVTLNFN [T6P] | 1.65
SDDFCHFQMVLEGGVCCTVTLNFN [T6H] | 2.12
SDDFCGFQMVLEGGVCCTVTLNFN [T6G] | 2.51
SDDFCNFQMVLEGGVCCTVTLNFN [T6N] | 2.54
SDDFCMFQMVLEGGVCCTVTLNFN [T6M] | 3.02

Variant | protein stability index
SDDFCAFQMVLEGGVCCTVTLNFN [T6A] | 2.79
SDDFCKFQMVLEGGVCCTVTLNFN [T6K] | 2.04
SDDFCTDQMVLEGGVCCTVTLNFN [F7D] | 1.59
SDDFCTWQMVLEGGVCCTVTLNFN [F7W] | 2.67
SDDFCTHQMVLEGGVCCTVTLNFN [F7H] | 2.26
SDDFCTPQMVLEGGVCCTVTLNFN [F7P] | 1.46
SDDFCTVQMVLEGGVCCTVTLNFN [F7V] | 1.98
SDDFCTGQMVLEGGVCCTVTLNFN [F7G] | 2.88
SDDFCTEQMVLEGGVCCTVTLNFN [F7E] | 2.03
SDDFCTNQMVLEGGVCCTVTLNFN [F7N] | 1.63
SDDFCTYQMVLEGGVCCTVTLNFN [F7Y] | 2.77
SDDFCTKQMVLEGGVCCTVTLNFN [F7K] | 1.93
SDDFCTTQMVLEGGVCCTVTLNFN [F7T] | 2.64
SDDFCTFEMVLEGGVCCTVTLNFN [Q8E] | 2.71
SDDFCTFVMVLEGGVCCTVTLNFN [Q8V] | 3.25
SDDFCTFDMVLEGGVCCTVTLNFN [Q8D] | 2.45
SDDFCTFGMVLEGGVCCTVTLNFN [Q8G] | 1.72
SDDFCTFWMVLEGGVCCTVTLNFN [Q8W] | 2.86
SDDFCTFMMVLEGGVCCTVTLNFN [Q8M] | 3.81
SDDFCTFRMVLEGGVCCTVTLNFN [Q8R] | 4.3
SDDFCTFKMVLEGGVCCTVTLNFN [Q8K] | 3.33
SDDFCTFCMVLEGGVCCTVTLNFN [Q8C] | 2.98
SDDFCTFNMVLEGGVCCTVTLNFN [Q8N] | 2.13
SDDFCTFYMVLEGGVCCTVTLNFN [Q8Y] | 1.44

Variant | protein stability index
SDDFCTFLMVLEGGVCCTVTLNFN [Q8L] | 3.02
SDDFCTFAMVLEGGVCCTVTLNFN [Q8A] | 3.01
SDDFCTFIMVLEGGVCCTVTLNFN [Q8I] | 3.21
SDDFCTFHMVLEGGVCCTVTLNFN [Q8H] | 3.2
SDDFCTFQCVLEGGVCCTVTLNFN [M9C] | 2.77
SDDFCTFQFVLEGGVCCTVTLNFN [M9F] | 2.5
SDDFCTFQGVLEGGVCCTVTLNFN [M9G] | 3.57
SDDFCTFQEVLEGGVCCTVTLNFN [M9E] | 1.42
SDDFCTFQDVLEGGVCCTVTLNFN [M9D] | 2.18
SDDFCTFQAVLEGGVCCTVTLNFN [M9A] | 2.43
SDDFDTFQMVLEGGVCCTVTLNFN [C5D] | 2.59
SDDFHTFQMVLEGGVCCTVTLNFN [C5H] | 2.97
SDDFLTFQMVLEGGVCCTVTLNFN [C5L] | 3.9
SDDFRTFQMVLEGGVCCTVTLNFN [C5R] | 3.13
SDDFMTFQMVLEGGVCCTVTLNFN [C5M] | 3.18
SDDFVTFQMVLEGGVCCTVTLNFN [C5V] | 3.65
SDDFKTFQMVLEGGVCCTVTLNFN [C5K] | 2.39
SDDFITFQMVLEGGVCCTVTLNFN [C5I] | 3.26
SDDFQTFQMVLEGGVCCTVTLNFN [C5Q] | 3.77
SDDFFTFQMVLEGGVCCTVTLNFN [C5F] | 2.08
SDDFATFQMVLEGGVCCTVTLNFN [C5A] | 1.58
SADFCTFQMVLEGGVCCTVTLNFN [D2A] | 3.55
